Experimental data: patent publication US20220206001A1 (TWIST BIOSCIENCE, published 2022)

Key:
[1] = biological target: T1, SARS-CoV S1 monomer (SARS-CoV, UniProt P59594 14-667); test: SPR (Carterra LSA)
T1 construct: domain: S1

[2] = biological target: SARS-CoV-2 nucleocapsid protein (SARS-CoV-2, UniProt P0DTC9 1-419); test: lateral flow screen with nucleocapsid protein, capture antibody

Binder | binding result [1] | binding result [2]
Ab-7 (antibody, V domains shown) VH: EVQLLESGGGLVQPGGSLRLSCAASGFTFSDFAMAWVRQAPGKGLEWVSAISGSGDITYYADSVKGRFTISRDNSKNTLYLQMNSLRAEDTAVYYCAREADGLHSPWHFDLWGQGTLVTVSS VL: DIQMTQSPSSLSASVGDRVTITCRASQSIHTYLNWYQQKPGKAPKLLIYAASALASGVPSRFSGSGSGTDFTLTISSLQPEDFATYYCQQSYSAPPYTFGQGTKVEIK | binds | –
Ab-89 (antibody, V domains shown) VH: EVQLVESGGGLVQPGGSLRLSCAASGIPSTLRAMGWFRQAPGKEREFVALINRSGGSQFYADSVKGRFTISADNSKNTAYLQMNSLKPEDTAVYYCAIGRGSWGQGTLVTVSS | – | binds
